Reference: US5985836A, “Alpha-1 proteinase inhibitor binding peptides” (Bayer Corporation, priority 1998, dated 1999)
Ends that are not written are not given here.

Legend:
A1PI [1] = target: T1, A1PI (Homo sapiens, UniProt P01009); test: A1PI binding on peptide-resin column, injection of 1 mg A1PI in equilibration buffer; settings: 1 mg A1PI in equilibration buffer
T1 construct: Human plasma is currently the only approved source of therapeutic AlPI
Method in brief: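 Peptides synthesized on A-Totda-Toyopearl chelate resin (0.1 mmole/g) packed in 0.4×5 cm columns; 1 mg A1PI injected in equilibration buffer at 4 °C or 20 °C, 865 or 523 μl/min. Flowthrough, 1M/3M NaCl washes and 2% acetic acid eluate quantified by A280 or immunonephelometry as percent of total eluted.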

A1PI [2] = target: T1, A1PI; test: A1PI purification from 5 mg hSA + 1 mg A1PI on peptide column, A1PI mass balance; format: binding; settings: A1PI, 5 mg hSA + 1 mg A1PI; for Percent Eluted by Fraction, 1M NaCl / Percent Eluted by Fraction, 2% Ac. Acid / Percent Eluted by Fraction, 3M NaCl / Percent Eluted by Fraction, Flow: relative to total eluted
Method in brief: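 Peptides on A-Totda-Toyopearl resin (0.1 mmole/g) in 0.4×5 cm columns; 5 mg hSA + 1 mg A1PI loaded at 4 °C or 20 °C with 10 min residence (17 μl/min). Steps of 1M and 3M NaCl, then 2% acetic acid; fractions quantified by immunonephelometry for mass balance.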

A1PI [3] = target: T1, A1PI; test: Purification of A1PI from Effluent II+III on peptide column, A1PI mass balance; format: binding; settings: A1PI, 1 ml Eff. II+III, 4° C.
Method in brief: (§1)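 Run at 4° C: Effluent II+III (1 ml, 20% ethanol) loaded with a 10 min residence. Elution at 865 μl/min, in sequence 1M NaCl, 3M NaCl, 2% acetic acid; A1PI, IgA, IgG and haptoglobin accounted for in each fraction.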

[4] = target: T2, apolipoprotein alpha-1 (Apo A-1) (Homo sapiens, UniProt P02647); test: Purification from Effluent II+III, Apo A-1 mass balance; format: binding; settings: 1 ml Eff. II+III, 4° C.
T2 construct: Eff; II+III is a process intermediate in the Cohn plasma fractionation process; tissue Bayer Corporation (Clayton, N.C.); host or cells: plasma fraction: Cohn Effluent II+III
T2 sequence (P02647 19-267): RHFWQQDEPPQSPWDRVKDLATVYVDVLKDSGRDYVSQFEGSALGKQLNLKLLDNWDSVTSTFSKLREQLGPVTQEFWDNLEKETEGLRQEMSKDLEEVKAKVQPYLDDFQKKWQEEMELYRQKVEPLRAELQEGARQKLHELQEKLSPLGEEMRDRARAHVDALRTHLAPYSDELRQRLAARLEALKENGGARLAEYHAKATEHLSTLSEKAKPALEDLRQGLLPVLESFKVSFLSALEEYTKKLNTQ
Method in brief: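 Mass balance per protein was determined over the load and each step eluate (1M NaCl, 3M NaCl, 2% acetic acid) of peptide columns challenged with 1 ml Effluent II+III. The feed contained 20% ethanol and 20-25 mg/ml hSA, the flow was 865 μl/min after a 10 min residence, and the temperature was 4° C.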

Immunoglobulin A (IgA) = test: Purification from Effluent II+III, IgA mass balance; format: binding, human; settings: 1 ml Eff. II+III, 4° C.
Method in brief: as §1

Immunoglobulin G (IgG) = test: Purification from Effluent II+III, IgG mass balance; format: binding, human; settings: 1 ml Eff. II+III, 4° C.
Method in brief: as §1

A1PI [5] = target: T1, A1PI; test: A1PI yield from dialyzed (aqueous) Effluent II+III; format: binding; settings: 4° C.
Method: Effluent II+III was dialyzed against equilibration buffer at 4° C. to remove the ethanol using a 15,000 molecular weight cut-off membrane. Nephelometry of the Eff. […] A portion of the identified sequences were assayed under the same conditions applied for neat Eff. II+III at 4° C. […] II+III compared to the neat, ethanol-containing feed. The binding strength differed for the aqueous feed as more AlPI eluted in 1M NaCl for the aqueous feed. The AlPI eluted in the 1M NaCl fractions was not as enriched as that eluted in the acid eluates.

A1PI [6] = target: T1, A1PI; test: Capture and elution of active A1PI with 2M urea buffer (elastase inhibition activity assay and immunonephelometry); format: binding; settings: 4° C.
[7] = 20° C., * Below detection limit
[8] = * as in Tables 4, 5 (below detection limit)
[9] = 1 ml dialyzed Eff. II+III (ethanol removed)
[10] = A1PI, 1 ml dialyzed Eff. II+III

T1 sequence (P01009 25-418): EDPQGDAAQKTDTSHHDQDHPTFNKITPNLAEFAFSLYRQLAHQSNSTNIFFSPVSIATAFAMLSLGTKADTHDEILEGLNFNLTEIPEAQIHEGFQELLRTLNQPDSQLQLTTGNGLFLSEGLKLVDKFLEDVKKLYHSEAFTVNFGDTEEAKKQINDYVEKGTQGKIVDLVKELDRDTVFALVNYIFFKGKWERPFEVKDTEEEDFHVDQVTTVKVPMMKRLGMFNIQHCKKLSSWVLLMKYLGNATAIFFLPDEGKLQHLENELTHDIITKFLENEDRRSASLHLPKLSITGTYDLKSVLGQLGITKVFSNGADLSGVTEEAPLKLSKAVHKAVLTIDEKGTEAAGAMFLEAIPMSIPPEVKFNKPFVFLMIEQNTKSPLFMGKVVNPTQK

RYRIFI
Percent A1PI Eluted by Fraction Based on Absorbance at 280 nm, 1M NaCl (A1PI [1]; 4° C.): 40% | Percent A1PI Eluted by Fraction Based on Absorbance at 280 nm, 2% Acetic Acid (A1PI [1]; 4° C.): 60% | Percent A1PI Eluted by Fraction Based on Absorbance at 280 nm, Flowthrough (A1PI [1]; 4° C.): 0% | Percent A1PI Eluted by Fraction, 1M NaCl (A1PI [1]; 20° C.): 35% | Percent A1PI Eluted by Fraction, 2% Acetic Acid (A1PI [1]; 20° C.): 65% | Percent A1PI Eluted by Fraction, Flowthrough (A1PI [1]; 20° C.): 0% | Mass Protein per Eluate Fraction, 1M NaCl (A1PI [2]; 4° C., * Below detection limit): 0.27 mg | Mass Protein per Eluate Fraction, 2% Ac. Acid (A1PI [2]; 4° C., * Below detection limit): 0.71 mg | Percent Eluted by Fraction, 1M NaCl (A1PI [2]; 4° C.): 28% | Percent Eluted by Fraction, 2% Ac. Acid (A1PI [2]; 4° C.): 72% | Percent Eluted by Fraction, 3M NaCl (A1PI [2]; 4° C.): 0% | Percent Eluted by Fraction, Flow (A1PI [2]; 4° C.): 0% | Mass Protein per Eluate Fraction, 1M NaCl (A1PI [2]; [7]): 0.21 mg | Mass Protein per Eluate Fraction, 2% Ac. Acid (A1PI [2]; [7]): 0.50 mg | Mass Protein per Eluate Fraction, Flow (A1PI [2]; [7]): 0.22 mg | Percent Eluted by Fraction, 1M NaCl (A1PI [2]; 20° C.): 23% | Percent Eluted by Fraction, 2% Ac. Acid (A1PI [2]; 20° C.): 53% | Percent Eluted by Fraction, 3M NaCl (A1PI [2]; 20° C.): 0% | Percent Eluted by Fraction, Flow (A1PI [2]; 20° C.): 24% | Percent Eluted by Fraction, 1M NaCl (A1PI [3]): 9% | Percent Eluted by Fraction, 2% Acetic Acid (A1PI [3]): 66% | Percent Eluted by Fraction, 3M NaCl (A1PI [3]): 0% | Percent Eluted by Fraction, Flow (A1PI [3]): 25% | Mass Protein per Eluate Fraction, 1M NaCl (A1PI [3]; [8]): 0.07 mg | Mass Protein per Eluate Fraction, 2% Acetic Acid (A1PI [3]; [8]): 0.50 mg | Mass Protein per Eluate Fraction, Flow (A1PI [3]; [8]): 0.19 mg | Percent Eluted by Fraction, 1M NaCl [4]: 0% | Percent Eluted by Fraction, 2% Acetic Acid [4]: 100% | Percent Eluted by Fraction, 3M NaCl [4]: 0% | Percent Eluted by Fraction, Flow [4]: 0% | Mass Protein per Eluate Fraction, 2% Acetic Acid [4, 8]: 0.39 mg | Percent Eluted by Fraction, 1M NaCl (Immunoglobulin A (IgA)): 17% | Percent Eluted by Fraction, 2% Acetic Acid (Immunoglobulin A (IgA)): 60% | Percent Eluted by Fraction, 3M NaCl (Immunoglobulin A (IgA)): 0% | Percent Eluted by Fraction, Flow (Immunoglobulin A (IgA)): 22% | Mass Protein per Eluate Fraction, 1M NaCl (Immunoglobulin A (IgA); [8]): 0.06 mg | Mass Protein per Eluate Fraction, 2% Acetic Acid (Immunoglobulin A (IgA); [8]): 0.23 mg | Mass Protein per Eluate Fraction, Flow (Immunoglobulin A (IgA); [8]): 0.08 mg | Percent Eluted by Fraction, 1M NaCl (Immunoglobulin G (IgG)): 0% | Percent Eluted by Fraction, 2% Acetic Acid (Immunoglobulin G (IgG)): 0% | Percent Eluted by Fraction, 3M NaCl (Immunoglobulin G (IgG)): 0% | Percent Eluted by Fraction, Flow (Immunoglobulin G (IgG)): 100% | Mass Protein per Eluate Fraction, Flow (Immunoglobulin G (IgG); [8]): 0.24 mg | Mass A1PI per Eluate Fraction, 1M NaCl (A1PI [5]; [9]): 0.15 mg | Mass A1PI per Eluate Fraction, 2% Acetic Acid (A1PI [5]; [9]): 0.25 mg | Mass A1PI per Eluate Fraction, Flowthrough (A1PI [5]; [9]): 0.21 mg | Percent Eluted by Fraction, 1M NaCl (A1PI [5]; [10]): 24% | Percent Eluted by Fraction, 2% Acetic Acid (A1PI [5]; [10]): 41% | Percent Eluted by Fraction, Flowthrough (A1PI [5]; [10]): 35% | Mass A1PI in Urea Eluate (mg), Activity (A1PI [6]; 1 mg A1PI, eluted with 2M urea, pH 6, elastase inhibition activity assay): 0.67 mg | Mass A1PI in Urea Eluate (mg), Nephelometry (A1PI [6]; 1 mg A1PI, eluted with 2M urea, pH 6, immunonephelometry): 0.79 mg | Specific Activity (A1PI [6]; mass of A1PI by activity assay relative to immunonephelometry, urea eluate): 0.86 mg/mg
